Measured values: the DeepSol protein solubility set

Experiment: soluble on expression in E. coli; label from the status in PepcDB or PDB records

## MSLYTFKELKRATKQDTVSLPKLKVALLGDTATQLLATAIKGEGILRNYNIELWEAEYNQVERQIMDPTSDYYQFEPDYTIIFHSTHKLLEKHSLVNSDLQNKLADDRLDFVRLLCEQGIGRVIYYNYPEIEDTIWGSYATKVQSSFTYQLTKLNYELMNISQAYPNFFICNLAGISAKYGRNFMFDSSVYVNTEIILSLDALPIISSRTIDIIAAIQGKFKKCLILDLDNTIWGGVVGDDGWENIQVGHGLGIGKAFTEFQEWVKKLKNRGIIIAVCSKNNEGKAKEPFERNPEMVLKLDDIAVFVANWENKADNIRTIQRTLNIGFDSMVFLDDNPFERNMVREHVPGVTVPELPEDPGDYLEYLYTLNLFETASFSEDDKDRTKQYQIEAKRVSLQQSFTNEAEFLKSLDMVSEVKGFDKFNTPRVAQLSQRSNQFNLRTVRYTEAEIAAIESDLHYATFSFTLADRFGDNGLICVIILEKQDTETLFINTWFMSCRVLKRGMENFTLNTLVDYARSNGFKRFIGEYLPSAKNQMVEEHYPHLGFSKMEGGDNAARYVLDVEEGHHHHHH
  soluble on expression in E. coli: not soluble

## SDPNKAEISRLEVLPQDLLGEIVAKIGAKYAEDYHNCILSCKELGASANDERVLKTLNLAPLVKKPLSCRKHLLIMKKCLANNNPDAHYIKGIIWYFNLDHCDVGLHHIGIAAN
  soluble on expression in E. coli: soluble

## MGSDKIHHHHHHLSGCVSLPPPAPIVHQPMSARAALPAPPPGNGAVYQDANQYHSLFIDRRARQIGDTLVILLTERTNASKRSNSSANKNGDVSFGIPPIVFGVPITKKIDLGASSSNDFAGKGEAASANNFSGTITVTVVDVLPNSYLVVSGEKQLAMTQGSEYIRFSGVVRPETVISNTVSSIQVADARIEYKANGYIDEAQTMGWLSRFFLTVAPF
  soluble on expression in E. coli: not soluble

## MHKEKHCAVVIDCWMEKIGEVNFENKPSKFPAFVEEIRKICGTKDFVFGLEDTRGFGRNLASYLTGRKFEVKHVNPVYTSAIRLSNPIIYKDDSYDAYCVARVLRDMVDTLQDAKHEDIYWAIRQLVKRREIIVKYNVMNKNQLHSQLSYGYPSYKKFFSQIDGKSALCFWENYPSPEHIWCTTPEQIYETIKAVHQAFKIERVHAIIDMIKKDGNTQKGYQEERDTIVRNIVKDIKNNQELLKDIEKQLRKLLPQTGYKLQTMPGIDLITEAKIVSEIGDINRFPNSDKLARFMGLAPVHFSSAGKGKEERCRNGNRELNAIFHFLAIQMVAVSPSGKPRHPVFREYFEQKVKEGKNKPQALICISRTLVRLIYGMMKTKTEYRPYEKKEEEGNN
  soluble on expression in E. coli: soluble

## GHHHHHHLEKCVFVTVGTTSFDDLIACVSAPDSLQKIESLGYNRLILQIGRGTVVPEPFSTESFTLDVYRYKDSLKEDIQKADLVISHAGAGSCLETLEKGKPLVVVINEKLMNNHQLELAKQLHKEGHLFYCTCSTLPGLLQSMDLSTLKCYPPGQPEKFSAFLDKVVGLQK
  soluble on expression in E. coli: not soluble

## MGSDKIHHHHHHMDSRDMQAIGLCRFSYPAIGGFQVEHETIEERISYLYAEDRLEERFQLLETVALPCLREQTDQNFELIVVIGDTLPKRHGDRLHDLTSDMPQVRIVVEPPRPQRELMKELLNSARTDPSKPCLQFRYDDDDAVSVDFIERFRNALNDCRGLVTTNRTVAVDFNRGYVAELGADGIAATETVRTLYVASLGMYVKGGCRLTIMNFAHEKIGRFMPVISISDVPMWVRSHNGFNDSRQKKVKPVPVVPLTEDQKAEFAARFAIREDHVKRVFSGG
  soluble on expression in E. coli: not soluble

## MGSDKIHHHHHHMFQSDLKLIVFQHGFFGERFVANLMNYPNSCPSYGACGIDGCTQCKEGLYNFSKNIIAVFSMPDPTTMPDFIENAEDFLPKVIPEADIAVAINLHPDVLAVMPEKLKGKVKALIVPVEEPRWCSPGLAKQIREKCDELGLEFAAPKPFCNLRPSEEHPTINRMIEEMRIGYPEFEIELLEDGKAYVRISRSQPCGCAYYIGVKLRGFDFSEVKEGKMRELWNVVAEAHHSYPCTASMERDNEYNETLLHVGGYIARHAVNRALGYEGDEDIPEHIKHIVL
  soluble on expression in E. coli: not soluble

## RLSLRAKAKEINLENLEEFVSEVKARNLKAYLAVNSTVNEDRLEEAGNVINAAAKAGVDAVIAWDPAVILKARKSGLRIHISTQANTTNHETAEFYRALGAERIVLSRELSLEEIREIRQRSEVEVETFVHGAMCMAVSGRCHLSAYVLGKSGNCGECTQPCRWEWELHGENNLVMESRGKYLLSAKDLCMIEHIPALLGARIDSFKVEGRLRDPGYLEVVSRCYREAIDACKEGTYTREKVDSWLSKLSSVYNRGFSTGFYFGIPGLEGFSPEKSMNASEKKRRAAGIVENYYPRQHAAAIKLLEEGLEIGNEILIEGSTTYLKQRVTSLIKNGMSLQKAEKGDEVGLAVDGTVRRNDRIFI
  soluble on expression in E. coli: not soluble

## DMPVEKIQEAEMAVEPKDGNMVEQPNDPVTNICQAADKQLVTLVEWAKRIPHFSDLPIDDQVILLRAGWNELLIAAFSHRSIDVKDGILLASGLHVHRSSAHQAGVGTIFDRVLTELVAKMRDMKMDKTELGCLRAIVLFNPDAKGLTDPSLVESLREKVYASLEEYCKQQYPEQPGRFAKLLLRLPALRSIGLKCLEHLFFFKLIGDTPIDTFLMEML
  soluble on expression in E. coli: soluble

## MSLAQKVKLSTIAETLGLSTATVSLALRDSPLVAAVTRDKIKEQARALGYIYNRRAASLRTSRSGIIGVVVHDIMNPFYGEILKAIEAELDRDKQTFILSNHYDSVEKQRDFIETLLQLGGDGVIMSPAIGTPPQDIQLAEDNGMPAILIARSIEGLDVPIFRGDDAYGISLATNHLIGLGHRCIAMVGGTDQTSTGRDRYQGYVNALRKANIEVDPDLRIPGPRSKQGGFEAAVHLLSLPQKPTAVVCWNDLVAIGMMNGIARAGLVPGVDISVTGYDDLEEASIATPALTTVWNGQAEVGRSAARALLDKLSGSHEPDGIHLIKPEMRIRQSTGPLRVTEGHHHHHH
  soluble on expression in E. coli: soluble

## AIALRADKPKCSIQNFFIPALGKDPNSRDNTTLNFMVRCDNPNKDKGIYYDDVHLNFSTINTTKINSSALVLVGNYTVPKFYQGHKKKAKKWGQVKPLNNQTVLRAVLPNGSAVFRLDLKTQVRFKIVFWKTKRYGVEVGADVEVNGDGVKAQKKGIKMKKS
  soluble on expression in E. coli: soluble

## MTVYKGSKKEAKPKECLLFFDKKTNTVRLEKITSNINVKKTRDLDQGTELALKRGIERLRTSSNNQRSGPSSPEEKAKIQKQMQRDTSDSSSDSDGSSDSDKSNGDSSDDEDESEKILLEEMKKPKPYTEREPAPPSSSNTYNHKESHVAPYISSSGNKNKDSEEKYGLALSESSDEDD
  soluble on expression in E. coli: not soluble

## MGSDKIHHHHHHMILCAGEALIDMLPRKTEAGEAAFAPYPGGSVFNTAVALSRLGTKTEFFSGLSTDLFGERLDSVLMANGVGSALAHRNDRPTTLAFVTLTDGHASYAFYDENTAGRMLTEADLPAIPETAKACFFGGISLAVEPCADAYAALIGRANDLGRVVMIDPNIRPGFIADEARFRARLDQMLAQTDIIKASDEDLRWLLGDMSLPELAEALRAKGPSVVLVTQGAAGVTGFYAGGEIHVDAEAVTVVDTVGAGDTFNAGVLAGLDDAGALDKAMIAKGLDAETLRGAMELGVRASAVTVTRAGANPPRRDELS
  soluble on expression in E. coli: not soluble

## MNSITVDFLNDQVFQGPMDGTEDKKDGNPKKSTCEKHWAVIDQHNVAICVQLCSFVEGEEKKCAEYYSDKVGGVLKFGRYSLKTIDVKTDLKEFTDKKGFTLYTVEITNSKKKDAPKKTVDILYFSGWPDHGAPQEAYPALEMLKFCESYKKNVLVHCSAGVGRTGTLVAIKYGIELCLKKKVI
  soluble on expression in E. coli: not soluble

## MGSDKIHHHHHHMKISLAPISYCWSKSDVEHFYQQVALSNIDTVYLGETVCSRRRELKFNNYLDLANMLKSHGKHVVLSTMALIEAQSELNELKRAIDNGDFSIEANDMAAVHYAHQAKVPFVCGPTINNYNRTSLNLLHQKGMYRFVMPCELSQQWLNTVINQGDKPAFEIEVLGHGYLPLAHSARCFTAKHYQLPKDKCQTICQRHSKGLLAQTQESQPLLRLNGIQTQSAAQVNLINQIPQMIDMGIDYWRISPNKLTDVAMGSELAHVLAQITEDPFNSKALITKQFNDNKQASIINHHCNGYWLGLPGMDYSLEPNTPAG
  soluble on expression in E. coli: not soluble

## DKGTALLVNRSLRFGERTAEELMTPRVKIVTLSTTDTVADLIDTASRTGFSRFPVVESDLDDAVGVVHIKHAFAVPAHRRRTARLNSLAQKVPVVPSSLDGDALMERIRSDGMQVAFVVDEYGGTAGMVTMEDLIEEIVGDVR
  soluble on expression in E. coli: not soluble

## MSLGKKELIGFQVGVRESTQSWHELLVEAKTRGLKIAPEIAVGDGALGFWKALDEVFPATRHQRCWVHKTANILNKVAVSVQASMKKDLREVYLASNRASAEVAIDVFAEKYGAKYDKAVECLTKDRDAMLAFYEFPAEHWDHLRTTNPIESVFATVRHRTVRTKGSLSSTTAKLMVFKLLCAASKTWRRLKGTNQLPKVSAGVRFENGIEEGHHHHHH
  soluble on expression in E. coli: not soluble

## MQPDVSFAPDVSFVIASYNAEATLDRAIASAIAQKGVSVEIIVVDDQSRDATLDVARAYPGDIVRVVALAKNRGPGGARNAGLDVARGRWIAVLDSDDAVFPGRLAAMISRAEKADAQIAVDNLQVIREDGVVEDAMFPRQYLEGLREISLATYIAGNVVFESKFNLGYLKPIFQRRFLDENRLRYDEQLRIGEDYILFAEALAKGGRCVVEPAIGYAYHIRSGSISRVLELHHVEAMRKADAVFAQTHRMDEAAQVAFARRGRSLRKAASFLAMVQHIKARSPLKAIRTALSDPAAVRHMGMPIAVRLRRVAAQFAVGAGRLEHHHHHH
  soluble on expression in E. coli: soluble

## MMSLVIAFISCSKSDEDKVIKEENPKITSDTFSAVIKDGFTGENGEDLILYKNLKNIVVGDYIPYDITIKDEDSANTKYILTPTRIGEKNHQYFQIDYDVYLDNDKGEKVRVNAITFDKIGKHRFYIKPLVPGTFKLSFVLQREQNGQKVQDIKFPTLNFNVVKITVYKTQIFIGLYEVRFYIEDGENETDIYLSPDPSVKQTFVSKYNDMTYTGDFNVKEFCKVGYYSSTIKTITSITIIQKREGEEEYRIEYYNIPIP
  soluble on expression in E. coli: not soluble

## MSSLWLDQARGSEPACPALQGATRADVCIVGGGYTGLWTALQLREQSPGLDIVLLEAQECGAGASGRNGGFMLSWAAKFETLLKVCGTDEALRLLGESERIAADVAGYLKRHGVDAQLRQDGWLWTASNAAQVDSWMPCIELLARHGQQAFVALPADEVRRLSGSAAHLAGVLSRSSATVHPGMYVRGLRRIALAKGIRIYEHTPMRSLRARPQPTVATARGEVRAAKVVLAMNAWSTRFRELNKGVVVVGSDLVATAPHPEALEKIGLTSGVAISDSRLFTNYYRNTCAGEMVFGRGGGDFAFNGAVGRLYEGPSRFAREVAAILHRFYPALAPLGIVRSWSGPIDRSMDGLPCFGHLGGHPDIVYGYGYSGNGVGPTYLGGKFLASMVLENDDAWRHSALARGLRGRFPPEPFRYVGSRVVKAALVRKEAAEDQGQAPARLDTMLAGLAPGGLVPVARKEKALEHHHHHH
  soluble on expression in E. coli: not soluble

## MHHHHHHSSGVDLGTENLYFQSMENFNNFYILTSKELGRGKFAVVRQCISKSTGQEYAAKFLKKRRRGQDCRAEILHEIAVLELAKSCPRVINLHEVYENTSEIILILEYAAGGEIFSLCLPELAEMVSENDVIRLIKQILEGVYYLHQNNIVHLDLKPQNILLSSIYPLGDIKIVDFGMSRKIGHACELREIMGTPEYLAPEILNYDPITTATDMWNIGIIAYMLLTHTSPFVGEDNQETYLNISQVNVDYSEETFSSVSQLATDFIQSLLVKNPEKRPTAEICLSHSWLQQWDFENLFHPEETSSSSQTQDHSVRSSEDKTSKSS
  soluble on expression in E. coli: soluble

## KKIKVYIELDLGGPITVGFPTHISDGISLLGSTNIFDDISEAYFTPKDEEILKRDPDIIIYEPKRLTDYEKERFYSILRKRDLFQLLNKRLIFTKGDYLAHMGPSFITDVLIWLKSVL
  soluble on expression in E. coli: not soluble

## GSSSLIRRVISTAKAPGAIGPYSQAVLVDRTIYISGQIGMDPSSGQLVSGGVAEEAKQALKNMGEILKAAGCDFTNVVKTTVLLADINDFNTVNEIYKQYFKSNFPARAAYQVAALPKGSRIEIEAVAIQGPLTTASL
  soluble on expression in E. coli: soluble
